Data published in the DeepSol protein solubility set.

Assay: soluble on expression in E. coli; label from the status in PepcDB or PDB records

Row | Sequence | soluble on expression in E. coli
1 | MARINRISITLCALLFTTLPLTPMAHASKQARESSATTHITKKADKKKSTATTKKTQKTAKKAASKSTTKSKTASSVKKSSITASKNAKTRSKHTVNKTASASLTEKCTKRKGYKSHCVKVKNAASGTLADAHKAKVQKATKVAMNKLMQQIGKPYRWGGSSPRTGFDCSGLVYYAYKDLVKIRIPRTANEMYHLRDAAPIERSELKNGDLVFFRTQGRGTADHVGVYVGNGKFIQSPRTGQEIQITSLSEDYWQRHYVGARRVMTPKTLR | soluble
2 | GPGSMTTSGALFPSLVPGSRGASNKYLVEFRAGKMSLKGTTVTPDKRKGLVYIQQTDDSLIHFCWKDRTSGNVEDDLIIFPDDCEFKRVPQCPSGRVYVLKFKAGSKRLFFWMQEPKTDQDEEHCRKVNEYLNNPPMPGALGASGSSGHELSALGGEGGLQSLLGNMSHSQLMQLIGPAGLGGLGGLGALTGPGLASLLGSSGPPGSSSSSSSRSQSAAVTPSSTTSSTRATPAPSAPAAASATSPSPAPSSGNGASTAASPTQPIQLSDLQSILATMNVPAGPAGGQQVDLASVLTPEIMAPILANADVQERLLPYLPSGESLPQTADEIQNTLTSPQFQQALGMFSAALASGQLGPLMCQFGLPAEAVEAANKGDVEAFAKAMQNNAKPEQKEGDTKDKKDEEEDMSLD | soluble
3 | MSMDNHIVIMAGGIGSRFWPMSTPECPKQFIDVMGCGRTLIQLTADRFDGVCPRENVWVVTSEKYIDIVREQLPEIPESNILAEPCARNTAPCIAYACWKIKKKHPNANVVVTPSDALVINTGEFRRVVEKALRFTDNSSAIVTLGIKPTRPETGYGYIAAGDQIMTDKEIFTVDAFKEKPDRETADRYLAEGNYFWNAGIFVWNVRTITSVMRVYAPGIAQIFDRIFPDFYTEKENETIKKLFPTCEAISIDYAVMEKAQEIYVLPASFGWSDLGTWGALRGLLPQDKSGNATVGADVRLYESKNCIVHTSEEKRVVIQGLDGYIIAEKDNTLLICKLDEEQRIKEFSK | not soluble
4 | MFKIVYPNAKDFFSFINSITNVTDSIILNFTEDGIFSRHLTEDKVLMAIMRIPKDVLSEYSIDSPTSVKLDVSSVKKILSKASSKKATIELTETDSGLKIIIRDEKSGAKSTIYIKAEKGQVEQLTEPKVNLAVNFTTDESVLNVIAADVTLVGEEMRISTEEDKIKIEAGEEGKRYVAFLMKDKPLKELSIDTSASSSYSAEMFKDAVKGLRGFSAPTMVSFGENLPMKIDVEAVSGGHMIFWIAPRLLEHHHHHH | soluble
5 | MAHHHHHHMKFDKRECINVDLTSQISEQDVTQSVSKGEKKRDSLPQNEKESELSAEKESQMSQPKADEANLKRENSPLSEPNRKGTSVNKKNDCETSHTDKETNLKEYYKDLPTVIIVIGMAGSGKTTYVGSLYNYLKVEKKKKVYTMNLDPAVKYVQYPVNIDIRDSIKYHEIMKEYKLGPNGAIMTCLNLFATRFDKVIEILEKRKNKLHYIIVDTPGQIEVFNWSASGNIILETLSVSFPVVINYIIDTVRCERPITFMSNMLYACSVLYKARLPFLACFNKVDIIKHDKCIEWMKDYDSFNDDVIHDESYMASFSRSCALMINEFYEGIKTVGISSKTNEGFNSILKNLELLKEEYINEYVTSIEKQMKRIKRKKEKDIKLKMENLLIEKQKDLSSSKNKSVN | not soluble
6 | MSLGIVIYGTRVIYPAEKKEVVVQLVNQGEQASLVQSWIDDGNTSLPPEKIQVPFMLTPPVARVAAESGQQIKIKKMPNSLPDNKESLFYLNVLDIPPNSQENAGKNVLKFAMQNRIKLIWRPSRIAAVTKDSFQRIGLFRSNKAVIMKNDTANWITVTDVKAGNTKINDQTIMLPPLSTQNINMKYASTSQYEVTIIDDNGNYISSKMNVKEGHHHHHH | soluble
7 | MSFQQPQASPISPGDSGWLIKMRKNRYLDHTSKVNEPKKYRSMDQLPTGKVGAPDNEKSEGTDPLHWQLRKDFHLAKYSERRASYHVESSSYIHSSQQIQHPPQQHHPPPPSPPPVAETIQHQPHPSQQQPSTTTISSRQLYKSQLLYPPGSTENIASEHKPAIRPPEKSVYENNPIAPSELNVQVKRAPPQGPPPPPPPQAPADIDYPERLMSPPPTHQPRSILKGYSSQQYYSQTNLTESHHHQSSQETSLNPQQMHPRPSDRRTPTHFEDLSEDEKTRIMHENLQRHRNMRSGPNGPRPTTTSFNGPFFRLEQVNPGQNQPQQPQYQQHPRSQSVDPSGDMNGGPRPIHQNFSASEIELHHYSRNAEPSVVVWPPVSEKERERPSSVLAKNFNDPERIDEYQRQKRLEYEAIQRTNEKQAVSMAKQVNAMMQQQKLYERSHGMTSPVPIMESISPQPQVSHHHHQPQQHQQHQPQQQYYPSPPPPPQPYRDPEPVFNPVQVYETRPISALSDQIDQPPSQQAPTSWKRTYIVERPRDVAKNEIITSDQLLEKEAYDVDLLKRRETFVEKPEEAPRINRLGRRWQPPPERPYVWPTLRRAMSVEPSSMPVDFAPGVPHNYDDNEEYKWEPVVNDPGYKKEDKNFTPVNSPPASPRRGHGVGPLDEPARRQAKYVIQPSPDGSHRPKAVFRKERHAPSGGFYPHAPNAIKVVKKRAQSVQGLLSPTDNVEVIHQRNYHRLDLEQNGHHGQKLRRSQHGGSEMDLRRSTQEMPDWEKIYELPPHSSQIVQKDMPRHVDVQRRLSKFEGSIQNLRAATSTQHLDSMQQLHFPMPDYEPPQPPQQRRRTESSGYRGGPPPPPPMPQQQPREMSRRNSVASTRIDSPSLMIPHHRQSRSDSRGPPQMSRAASSIPLSPQPTPQHHHHHHSQRPTTPGATRARNYIARATAPSPTPYSYDRARAYVPPALPPGYRLADPIPDQRAMSPSPGHTRKLIRNVSESAQRLHPSGSTPQTSRAPSRHSHRQSPNPRFL | not soluble
8 | MAHHHHHHMEGSSGHLKSTAVAHNDGQALPPAAGAGHAPPTSNAAAGQQKTDQPPIAAVPVMSVAERAAATAEAERALSLLCTIRAVRRQTEELTVLLLHACGEWGCWSVPTAEEGVACETTRTPLPSSPLPGRIRHSQHLFADLFVAAPLAPTAFCTSSSVSLVGVSDGTAKADLLDLSAGEDADPARLSAASVFAKESACRRERACQALRQALQQQQQRWSLSTAAAATATLAAGAAFLEMALAPPQRAVPPPPPMSVQLDLYAVQPCALQRSIQEWRPRAAQTTAAGATKAGGTSPPEEAASLHCSLQQLLHTLGRQGPQLQSSYDVLHAAAGQRHRTNTRSCTDEQRGVPPREATTGVIKAAEARAVVHKTHGTSAAASDAPQEVEVPPLPSSSSPLAVAPDTLRRTPSSLPRQHSSTTPSSSSQALPSSDTLLSSPVQLAVDHTRLWADPPTPLQRADFSCAAAAAPTSTEISERGARIPVHQAGRSVLEDASSHRTKGKPELEAHVEVEVIGGNADGSHAAAGASSSNSTQVTNMRRTSLSSSTFFHSPVAVDARGGVVGALREVYEASWQPCSNARPSTRPEAAHAVAVAEEKLASQHQEERRSRRCDRGGSATAVELEDSVRRHLTRWMSQQPNDRAWVSGGPGLGPASFLLDPIRHAPGSSRAATRATDATAPALGQGAGRDRRGSRRAVHSGVRVDPIREHAREEGAGAGTESPLDAWPRPGARTAGPRGPGCSRSAAEMSELQLCMCVLLA | soluble
9 | MASRETILDVLAKLEECKETLNNSLNYDEAANSNGSSTFQDQSEIKIEHIAPNLVFENGTVPQEQSNSFQWYEEEVSNDACVSSNEYSGVKLCPFNIGFKSYNTPPDQMQQLDKSISDNMACRMNVDFSGIDRLIQHGSEDMRTVGYGMRGMMKLLQIQHEKLMGKKPDDVTTGLKASLVPARFLKEKTVIVRNLTDDADINVNKVFGQLTAQSSSLKNIVINAANVWIKNVVPDEQRKLYSTSIKPQQPQITFPAQLLNGPAGLLVRCLSVTGGDNSSNAVNISLLFKQHVSNLFNHARSKSGITNSRKRKQQSEDYSYN | not soluble
10 | GSSPQREPQRVSHEQFRAALQLVVDPGDPRSYLDNFIKIGEGSTGIVCIATVRSSGKLVAVKKMDLRKQQRRELLFNEVVIMRDYQHENVVEMYNSYLVGDELWVVMEFLEGGALTDIVTHTRMNEEQIAAVCLAVLQALSVLHAQGVIHRDIKSDSILLTHDGRVKLSDFGFCAQVSKEVPRRKSLVGTPYWMAPELISRLPYGPEVDIWSLGIMVIEMVDGEPPYFNEPPLKAMKMIRDNLPPRLKNLHKVSPSLKGFLDRLLVRDPAQRATAAELLKHPFLAKAGPPASIVPLMRQNRTR | soluble
11 | GPGSMMEATERRRKRERNERNDERRDDCEVLAKTDEKRTIVEELFQRLQSLDHTHMELEARLCRRAEVSDKSGSTSSEREWKGRRARKTRTEVMPGVAEEDYKRIEEFCLDKGKEGSVTRSTTRDVSFGQWRYTYTSGKPSECIACIRKERLFVLDVPVPSGAYDIRFSACTEITGELPSPNFAPTRGYTRHKDRLSVTDGLFRYDLTRVRDKHTTGYEVEVEFLLKDNDEKKITDSHVEELVGRALSLATLTASEG | soluble
